As usually defined, the Kd is a measure of binding affinity in units of concentration.

Substitutions are numbered along the chain they refer to. In names and notes the source's numbering stands.

The labels stand for the following.
B1: target 1 insG 3' of 2,insA 3' of 2 (mixed)
RNA 1: CACCCGUGCAAAAAUGCAGGGGUCUAAAACUGAGCGGAUAACCUCUCUAUGG
RNA 2: GGGAAUGGAUCCACAUCUACGAAUUCGUACCAUAGAGAGGUUAUCCGCUCGAACCGAGAUCGGAAGAGCACACGU
B2: target 1 insA 3' of 7,insA 3' of 2 (mixed)
RNA 1: B1 RNA 1
RNA 2: B1 RNA 2 with C46A, G47C, C48G, U49C, C50U, G51C
B3: target 1 insC 3' of 8,insA 3' of 5 (mixed)
RNA 1: B1 RNA 1
RNA 2: B1 RNA 2 with G47C, C48G, U49A, G51U, A52C
B4: target 1 insG 3' of 18,insU 3' of 4 (mixed)
RNA 1: B1 RNA 1
RNA 2: GGGAAUGGAUCCACAUCUACGAAUUCGUACCAUAGGAGAGGUUAUCCGCUUCACCGAGAUCGGAAGAGCACACGU
B5: target 1 insA 3' of 10,insG 3' of 7 (mixed)
RNA 1: B1 RNA 1
RNA 2: B1 RNA 2 with U44A, C45U, U49G, G51U, A52C
B6: target 1 insG 3' of 6,insC 3' of 1 (mixed)
RNA 1: B1 RNA 1
RNA 2: B1 RNA 2 with C48G, U49C, C50U, G51C, A53C
B7: target 1 C6G,C22G (mixed)
RNA 1: B1 RNA 1
RNA 2: GGGAAUGGAUCCACAUCUACGAAUUCGUAGCAUAGAGAGGUUAUCGGCUCACCGAGAUCGGAAGAGCACACGU
B8: target 1 insG 3' of 11,insU 3' of 9 (mixed)
RNA 1: B1 RNA 1
RNA 2: B1 RNA 2 with U42G, A43U, U44A, C45U, C46U, G47C, U49G, G51U, A52C
B9: target 1 G5C,G12A (mixed)
RNA 1: B1 RNA 1
RNA 2: B7 RNA 2 with G30C, G40A, G46C, G47C
B10: target 1 del20,del22 (mixed)
RNA 1: B1 RNA 1
RNA 2: GGGAAUGGAUCCACAUCUACGAAUUCGUACUAGAGAGGUUAUCCGCUCACCGAGAUCGGAAGAGCACACGU
B11: target 1 insA 3' of 15,insU 3' of 4 (mixed)
RNA 1: B1 RNA 1
RNA 2: B4 RNA 2 with G36A, A37G, G38A
B12: target 1 del20 (mixed)
RNA 1: B1 RNA 1
RNA 2: GGGAAUGGAUCCACAUCUACGAAUUCGUACCUAGAGAGGUUAUCCGCUCACCGAGAUCGGAAGAGCACACGU
B13: target 1 insA 3' of 21,insC 3' of 5 (mixed)
RNA 1: B1 RNA 1
RNA 2: B4 RNA 2 with U33A, A34U, G35A, U50C
B14: target 1 insG 3' of 11,insG 3' of 6 (mixed)
RNA 1: B1 RNA 1
RNA 2: B4 RNA 2 with G36A, A37G, G38A, A39G, G41U, U42G, C49G, U50C
B15: target 1 complement block 3-14 (mixed)
RNA 1: B1 RNA 1
RNA 2: GGGAAUGGAUCCACAUCUACGAAUUCGUACCAUAGAGUCCAAUAGGCGACACCGAGAUCGGAAGAGCACACGU
B16: target 1 C2A,C4A (mixed)
RNA 1: B1 RNA 1
RNA 2: B7 RNA 2 with G30C, G46C, C48A, C50A
B17: target 1 insC 3' of 8,insU 3' of 2 (mixed)
RNA 1: B1 RNA 1
RNA 2: B1 RNA 2 with G47C, C48G, U49C, C50U, G51C, A52U
B18: target 1 G12U,G15A (mixed)
RNA 1: B1 RNA 1
RNA 2: B7 RNA 2 with G30C, G37A, G40U, G46C
B19: target 1 insG 3' of 11,insC 3' of 10 (mixed)
RNA 1: B1 RNA 1
RNA 2: B1 RNA 2 with U42G, A43U, U44C, C45A, C46U, G47C, U49G, G51U, A52C
B20: target 1 insG 3' of 18,insA 3' of 10 (mixed)
RNA 1: B1 RNA 1
RNA 2: B4 RNA 2 with U45A, C46U, G48C, C49G, U50C
B21: target 1 insG 3' of 6,insA 3' of 2 (mixed)
RNA 1: B1 RNA 1
RNA 2: B1 RNA 2 with C48G, U49C, C50U, G51C
B22: target 1 del8,del20 (mixed)
RNA 1: B1 RNA 1
RNA 2: GGGAAUGGAUCCACAUCUACGAAUUCGUACCUAGAGAGGUUACCGCUCACCGAGAUCGGAAGAGCACACGU
B23: target 1 A1C,G12A (mixed)
RNA 1: B1 RNA 1
RNA 2: B7 RNA 2 with G30C, G40A, G46C, A51C
B24: target 1 C4G,A18U (mixed)
RNA 1: B1 RNA 1
RNA 2: B7 RNA 2 with G30C, A34U, G46C, C48G
B25: target 1 insA 3' of 22,insU 3' of 2 (mixed)
RNA 1: B1 RNA 1
RNA 2: B4 RNA 2 with C31A, A32C, U33A, A34U, G35A, U51C, C52U
B26: target 1 insG 3' of 14,insC 3' of 14 (mixed)
RNA 1: B1 RNA 1
RNA 2: GGGAAUGGAUCCACAUCUACGAAUUCGUACCAUAGAGAGCGGUUAUCCGCUCACCGAGAUCGGAAGAGCACACGU
B27: target 1 insU 3' of 12,insC 3' of 5 (mixed)
RNA 1: B1 RNA 1
RNA 2: B4 RNA 2 with G36A, A37G, G38A, A39G, G41U, U50C
B28: target 1 del17,del19 (mixed)
RNA 1: B1 RNA 1
RNA 2: B10 RNA 2 with U31C, G33A
B29: target 1 insU 3' of 20,insC 3' of 12 (mixed)
RNA 1: B1 RNA 1
RNA 2: B26 RNA 2 with A34U, G35A, A36G, G37A, A38G, G39A, C40G, G42C
B30: target 1 insU 3' of 13,insA 3' of 6 (mixed)
RNA 1: B1 RNA 1
RNA 2: B26 RNA 2 with C40U, G42U, U44A, A45U, U46C, C48A
B31: target 1 insA 3' of 17,insU 3' of 2 (mixed)
RNA 1: B1 RNA 1
RNA 2: B4 RNA 2 with G36A, U51C, C52U

The target in the data set is T1, EsCas13d, nuclease-dead (Eubacterium siraeum, UniProt B0MS50, R295A;H300A;R849A;H854A).
T1 sequence: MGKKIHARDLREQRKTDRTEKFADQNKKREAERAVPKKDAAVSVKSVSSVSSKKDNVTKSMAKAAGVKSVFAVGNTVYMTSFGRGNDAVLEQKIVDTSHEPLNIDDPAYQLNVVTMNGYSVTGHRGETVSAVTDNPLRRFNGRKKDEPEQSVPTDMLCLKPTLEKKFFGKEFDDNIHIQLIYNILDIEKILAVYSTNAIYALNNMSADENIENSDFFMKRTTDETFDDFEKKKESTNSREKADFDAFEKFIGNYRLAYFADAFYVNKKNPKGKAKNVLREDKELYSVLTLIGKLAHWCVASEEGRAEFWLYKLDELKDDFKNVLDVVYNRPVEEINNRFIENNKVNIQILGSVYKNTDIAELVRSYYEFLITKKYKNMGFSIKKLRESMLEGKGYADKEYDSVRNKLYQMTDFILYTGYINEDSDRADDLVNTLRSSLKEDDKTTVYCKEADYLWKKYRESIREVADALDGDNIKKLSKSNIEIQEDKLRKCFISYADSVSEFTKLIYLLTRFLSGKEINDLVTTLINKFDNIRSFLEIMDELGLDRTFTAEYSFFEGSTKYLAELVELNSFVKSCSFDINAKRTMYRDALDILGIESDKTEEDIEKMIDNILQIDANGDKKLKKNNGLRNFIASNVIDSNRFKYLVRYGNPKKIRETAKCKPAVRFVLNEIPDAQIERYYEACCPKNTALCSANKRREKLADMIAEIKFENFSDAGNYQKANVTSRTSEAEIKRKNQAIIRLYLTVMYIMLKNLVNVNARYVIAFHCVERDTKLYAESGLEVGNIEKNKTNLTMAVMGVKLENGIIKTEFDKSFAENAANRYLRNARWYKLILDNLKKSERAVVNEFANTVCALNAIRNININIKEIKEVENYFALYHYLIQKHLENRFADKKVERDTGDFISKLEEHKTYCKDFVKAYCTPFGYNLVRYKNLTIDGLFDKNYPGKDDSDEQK
As to the kind of experiment: crRNA (strand 1, pre-loaded); Mg2+; 40 mM Tris-HCl pH 7.5, 150 mM NaCl, 6 mM MgCl2, 1 mM DTT, 0.1% Tween-20, 0.2 mg/ml BSA; 25 C; 10 min per concentration, then washed. The following applies: tags: His6-TwinStrep-SUMO cleaved; N-terminal SNAP kept (SNAP-Surface 488); label: 3' end held by stalled T7 RNA polymerase.
B1 showed a Kd of 10 ± 0.8 nM.

On to B2, for which the Kd came out at 7.2 ± 0.8 nM.

B3 showed a Kd of 13.2 ± 1.2 nM.

B4 showed a Kd of 63 ± 4 nM.

For the molecule B5, the Kd amounted to 12.4 ± 0.7 nM.

Consider B6, for which the Kd is 13.1 ± 0.9 nM.

Molecule B7 displayed a Kd of 35 ± 5 nM.

For the molecule B8, binding was put at a Kd of 28 ± 5 nM.

B9 gave a Kd of 8.6 ± 0.4 nM.

In the case of B10, binding was put at a Kd of 9 ± 1.2 nM.

As for B11, the Kd was 9.5 ± 1.2 nM.

On to B12, for which the Kd was 31 ± 1.6 nM.

For the molecule B13, binding was characterised by a dissociation constant (Kd) of 45 ± 7 nM.

B14 returned a Kd of 39 ± 4 nM.

As for B15, the Kd was ~60 nM.

For the molecule B16, the affinity, expressed as Kd, was 10.3 ± 0.5 nM.

On to B17, for which the affinity, expressed as Kd, was 21.3 ± 2.8 nM.

Consider B18, for which the affinity, expressed as Kd, was 11.3 ± 1.3 nM.

In the case of B19, binding was characterised by a dissociation constant (Kd) of 21.3 ± 0.9 nM.

On to B20, for which the affinity, expressed as Kd, was 64 ± 6 nM.

B21 yielded a Kd of 12.6 ± 0.7 nM.

In the case of B22, binding was characterised by a dissociation constant (Kd) of 74 ± 9 nM.

With B23, the Kd amounted to 6.6 ± 0.5 nM.

As to B24, the Kd turned out to be 22.7 ± 2.4 nM.

Take B25: binding was put at a Kd of 14.6 ± 1 nM.

B26: the Kd is 34 ± 6 nM.

As to B27, the Kd was 9.8 ± 1.2 nM.

The molecule B28 displayed a Kd of 50 ± 5 nM.

Regarding B29, the Kd amounted to 37 ± 14 nM.

With B30, the Kd is 33.9 ± 3.2 nM.

In turn, B31 showed a Kd of 15.4 ± 1.6 nM.

The values are drawn from PMC10786891, “Massively parallel profiling of RNA-targeting CRISPR-Cas13d”.
